Source: US20240090511A1

Target: N. viridula BBMV proteins
Assay: competition pull-down: biotinylated peptide against ABP5-(AP)5-mCherry on BBMV

competitor peptide concentration at which binding was outcompeted: > 10 µM
Binder: MDWPRRN (biotinylated (position not given)) [biotinylated synthetic peptide (ABP5)]
